Data as given in the Human Domainome abundance scans (Beltran et al. 2025).

B1: Ankyrin-2, residues 3571 to 3650; numbered along this chain, Q01484 (parent)
chain: ERLAYIADHLGFSWTELARELDFTEEQIHQIRIENPNSLQDQSHALLKYWLERDGKHATDTNLVECLTKINRMDIVHLME
B2: Transcription elongation regulator 1-like protein, residues 448 to 504; numbered along this chain, Q5VWI1 (parent)
chain: LPLEERVTHFRDMLLERGVSAFSTWEKELHKIVFDPRYLLLNSEERKQIFEQFVKTR

Variants of: B1
Assay: abundance fitness (aPCA) (normalised: wild type 0, dead -1); higher = more abundant; growth selection in yeast, the domain comes from the species named
Details: Homo sapiens

Abundance fitness, by site and new letter:
D74: Q -0.435; K -0.348; P -0.471; I -0.692; E -0.151; F -0.971; M -0.839; A -0.515; L -0.849; S -0.593; Y -0.862; W -0.573; N -0.577; G -0.678; T -0.793; V -0.682; H -0.563; R -0.707
K69: G -0.06; F -0.126; N 0.012; S -0.049; D -0.094; I -0.121; Q 0; W -0.306; L -0.059; R 0.005; P -0.545; V -0.027; C -0.094; M -0.068; E -0.054; T -0.032; A 0.001; Y -0.017
V76: M -0.099; K -0.467; H -0.084; S -0.219; N -0.249; C -0.027; R -0.223; P -0.226; A -0.091; Q -0.107; L -0.081; I 0.04; F -0.102; T -0.223; W -0.05; G -0.216; Y -0.196; E -0.063
M79: K -0.23
I70: V -0.035; N -0.693; E -0.305; A -0.099; C -0.113; D -0.533; G -0.663; Q -0.382; R -0.551; W -0.789; K -0.784; H -0.334; L -0.065; M -0.002; P -1.06; T -0.226
L67: H -0.838; T -1.16; R -1.09; E -0.643; A -0.224; I -0.199; P -0.875; G -0.84; F -0.591; W -0.832; C -0.153; Y -0.754; M -0.249
I75: V 0.136; A 0.011; R -0.609; F -0.371; C -0.297; G -0.263; S -0.54; E -0.031; M 0.076
M73: C 0.226; R 0.018; L 0.04; T -0.092; G -0.165; P -0.134; V 0.035
C66: P 0.065; W -0.058; R 0.001; M 0.009; Y -0.27; Q -0.018; L -0.126; T -0.078; S -0.013; N -0.092; V 0.034
N71: K -0.078; S -0.028; V -0.252; A 0.021; C -0.064; P -0.135; L -0.196; M -0.167; W -0.355; G -0.014; H -0.163; R -0.031; E -0.153; Y -0.476; F -0.343; D -0.054; T -0.18
T68: Y -0.136; M -0.102; E 0.047; F 0.041; R -0.071; G -0.039; S -0.147; V -0.001; I -0.122; N -0.231; H 0.068; P -0.098; K -0.044; A -0.057
R72: W -0.659; L -0.187; T -0.331; P -0.588; G -0.204; Q -0.137; S 0.223; A -0.205; V -0.568

Variants of: B2
Assay: as above
Details: Homo sapiens

Abundance fitness of substitutions, site by site:
F34: S 0.229; V -0.085; I 0.199; A 0.029
E26: T -0.524; C 0.153; Q -0.355; W -0.84
E45: S -0.514; H -0.204; G -0.427
Q52: C -0.402; M -0.428; N -0.506; F -0.922; E 0.114
